Values belong to the substance of their own block, whether it stands above or below them.
Tests used:
[1] = target: MUC16 (CA125), native, membrane-bound on cancer cells (human) (UniProt Q8WXI7); assay: cell-based or functional assay
[2] = target: MUC16-targeted mesothelin-TR3 fusion protein (Meso-TR3) (human); assay: cell-based or functional assay
[3] = target: MUC16 (CA125), native, membrane-bound on cancer cells (human) (UniProt Q8WXI7); assay: flow cytometry on OVCAR3 cells, anti-FLAG detection

Sequence of MUC16-targeted mesothelin-TR3 fusion protein (Meso-TR3) (chain): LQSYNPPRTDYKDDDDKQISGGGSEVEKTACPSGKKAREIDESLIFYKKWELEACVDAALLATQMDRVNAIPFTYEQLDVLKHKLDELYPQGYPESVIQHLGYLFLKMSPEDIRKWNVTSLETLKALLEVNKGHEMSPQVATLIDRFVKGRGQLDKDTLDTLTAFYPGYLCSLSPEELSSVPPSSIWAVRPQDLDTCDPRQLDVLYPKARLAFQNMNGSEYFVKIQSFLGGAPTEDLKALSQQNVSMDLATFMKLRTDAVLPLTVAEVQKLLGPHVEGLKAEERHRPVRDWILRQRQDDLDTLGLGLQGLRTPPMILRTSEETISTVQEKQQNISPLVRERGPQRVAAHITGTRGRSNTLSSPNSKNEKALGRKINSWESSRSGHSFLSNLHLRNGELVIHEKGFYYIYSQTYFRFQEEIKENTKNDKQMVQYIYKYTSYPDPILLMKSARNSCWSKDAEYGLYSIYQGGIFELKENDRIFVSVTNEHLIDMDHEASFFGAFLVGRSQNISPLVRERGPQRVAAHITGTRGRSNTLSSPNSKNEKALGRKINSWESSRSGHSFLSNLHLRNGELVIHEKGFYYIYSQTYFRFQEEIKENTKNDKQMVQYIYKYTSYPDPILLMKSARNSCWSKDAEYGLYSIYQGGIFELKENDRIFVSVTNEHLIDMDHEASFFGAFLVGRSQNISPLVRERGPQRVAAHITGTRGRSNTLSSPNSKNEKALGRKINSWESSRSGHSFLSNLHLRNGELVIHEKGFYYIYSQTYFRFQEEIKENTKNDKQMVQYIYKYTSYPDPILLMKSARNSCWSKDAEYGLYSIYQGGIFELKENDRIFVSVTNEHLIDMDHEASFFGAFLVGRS
Sequence of MUC16-targeted mesothelin-TR3 fusion protein (Meso-TR3) (human) (chain, as listed by the source limits assumed, form in doubt): as the sequence (chain) above

- fraction of MUC16-positive HeLa cells after Meso-TR3 treatment (flow cytometry) [1]: 54%
- fraction of MUC16-positive HeLa cells before Meso-TR3 treatment (flow cytometry) [1]: 80%
Substance: MUC16-targeted mesothelin-TR3 fusion protein (Meso-TR3)
- cell death of MUC16-positive OVCAR3 cells at the highest drug dose [1]: 65%
- cell killing of OVCAR3 cells by Meso-TR3, highest dose of soluble mesothelin competitor [1]: 40%
- cell killing of OVCAR3 cells by Meso-TR3, no competitor [1]: 80%

Substance: soluble death receptor 5 (DR5-Fc) (from UniProt O14763 56-182) (Fc fusion)
- cell death of OVCAR3 cells by Meso-TR3 at the highest DR5-Fc concentration [2]: < 10%
- cell death of OVCAR3 cells by Meso-TR3 in the absence of DR5-Fc [2]: 90%

- percent of cells positive for the FLAG epitope tag [3]: 100%
Substance: soluble, FLAG-tagged human mesothelin (secreted form, GPI signal sequence deleted) (from UniProt Q13421 37-598) (ligand)

Reference: US20180030109A1
